Results taken from article PMC2562697.

Biological target: MutSα subunit MSH2-His6;MutSα subunit MSH6 (human;human, UniProt P43246;P52701 1-934;1-1360, |)
Assay: EMSA

B1: G:T mismatch 35 bp (dsDNA)
DNA 1: GTGGATCCCCCGGGCTGCGGGAATTCGATATCAAG
DNA 2: CTTGATATCGAATTCCTGCAGCCCGGGGGATCCAC
binding result: binds
